The values that follow come from US20200157212A1 (Pfizer, published 2020).

The labels stand for the following.
T1: Terbium (Tb) labeled-SNAP tagged ROBO2 expressed on HEK293 cells (Homo sapiens (Human), UniProt Q9HCK4 22-1378, terbium label on the SNAP tag)
T1 construct: also called Tb-labeled ROBO2 cells; ROBO2 expressing cells; not shown: SNAP tag
T1 sequence: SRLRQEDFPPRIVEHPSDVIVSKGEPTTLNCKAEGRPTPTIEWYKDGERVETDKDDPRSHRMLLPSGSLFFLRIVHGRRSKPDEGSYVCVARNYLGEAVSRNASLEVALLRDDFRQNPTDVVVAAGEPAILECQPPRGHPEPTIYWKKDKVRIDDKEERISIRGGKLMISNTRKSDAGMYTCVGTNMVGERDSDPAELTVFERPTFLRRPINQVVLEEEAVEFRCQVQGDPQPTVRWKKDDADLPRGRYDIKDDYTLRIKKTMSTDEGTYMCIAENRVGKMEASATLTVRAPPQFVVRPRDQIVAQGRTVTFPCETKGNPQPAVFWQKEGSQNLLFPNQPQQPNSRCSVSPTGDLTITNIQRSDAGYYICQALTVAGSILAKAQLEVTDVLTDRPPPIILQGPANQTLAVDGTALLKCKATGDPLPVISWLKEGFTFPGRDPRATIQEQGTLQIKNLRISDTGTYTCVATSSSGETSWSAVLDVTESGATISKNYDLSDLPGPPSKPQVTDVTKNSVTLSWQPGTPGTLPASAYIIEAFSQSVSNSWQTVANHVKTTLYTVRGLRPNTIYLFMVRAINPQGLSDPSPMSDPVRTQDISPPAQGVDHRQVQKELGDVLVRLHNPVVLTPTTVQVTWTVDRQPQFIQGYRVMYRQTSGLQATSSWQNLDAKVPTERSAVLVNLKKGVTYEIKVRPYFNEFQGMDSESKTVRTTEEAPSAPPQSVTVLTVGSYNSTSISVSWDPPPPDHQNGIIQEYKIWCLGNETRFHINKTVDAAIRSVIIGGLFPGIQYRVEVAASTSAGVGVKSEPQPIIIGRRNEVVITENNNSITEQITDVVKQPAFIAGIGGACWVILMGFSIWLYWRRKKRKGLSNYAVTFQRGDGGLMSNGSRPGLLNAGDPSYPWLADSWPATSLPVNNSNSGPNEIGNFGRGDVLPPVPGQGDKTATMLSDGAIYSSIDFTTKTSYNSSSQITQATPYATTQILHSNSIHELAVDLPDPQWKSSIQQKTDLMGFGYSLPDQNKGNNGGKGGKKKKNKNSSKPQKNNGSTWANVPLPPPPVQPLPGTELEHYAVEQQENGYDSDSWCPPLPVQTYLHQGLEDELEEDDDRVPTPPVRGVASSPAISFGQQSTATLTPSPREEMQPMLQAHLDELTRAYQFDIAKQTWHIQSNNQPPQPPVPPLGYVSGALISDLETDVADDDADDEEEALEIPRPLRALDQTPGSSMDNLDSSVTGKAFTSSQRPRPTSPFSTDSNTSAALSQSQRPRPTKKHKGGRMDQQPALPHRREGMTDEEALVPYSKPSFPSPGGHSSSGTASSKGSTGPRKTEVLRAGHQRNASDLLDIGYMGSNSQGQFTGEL

B1: CTIR2-1 (antibody, human IgG1, kappa, V domains shown)
VH: EVQLVQSGAEVKKPGASVKVSCKASGYTFTGYYMHWVRQAPGQGLEWMGWINPRSGATNFPQKFQGRVTMTRDTSITTAYMDLSRLRSDDTAVYYCARESGDDAFDIWGQGTMVTVSS
VL: DIVMTQSPSSLSASVGDRVTITCRASQSISSYLNWYQQKPGKAPKLLIYAASSLQYGVPSRFSGSGSGTDFTLTISSLQPEDFATYYCQQSLELGFGGGTKVEIKR
notes: CDR-shuffled IgG
B2: CTIR2-11 (antibody, human IgG1, kappa, V domains shown)
VH: B1 VH with T30R, Y33A, N52D, S55T, A57L, N59K
VL: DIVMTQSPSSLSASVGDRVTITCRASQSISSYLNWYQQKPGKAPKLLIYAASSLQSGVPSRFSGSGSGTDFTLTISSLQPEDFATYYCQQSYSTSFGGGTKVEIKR
notes: CDR-shuffled IgG
B3: CTIR2-3 (antibody, human IgG1, kappa, V domains shown)
VH: B1 VH
VL: B1 VL with L92V, E93G, G95F
notes: CDR-shuffled IgG
B4: CTIR2-2 (antibody, human IgG1, kappa, V domains shown)
VH: B1 VH
VL: B1 VL with L92V, E93G, G95S
notes: CDR-shuffled IgG
B5: CTIR2-4 (antibody, human IgG1, kappa, V domains shown)
VH: B1 VH with R54K
VL: B1 VL with S28K, L92Y, E93S, L94T, G95S
notes: CDR-shuffled IgG
B6: CTIR2-12 (antibody, human IgG1, kappa, V domains shown)
VH: B1 VH with T30R, Y33A, N52D, S55T, A57L, N59K
VL: B1 VL with S28K, Y56S, L92Y, E93S, L94T, G95S
notes: CDR-shuffled IgG
B7: CTIR2-5 (antibody, human IgG1, kappa, V domains shown)
VH: B1 VH with R54K
VL: B1 VL with S28K, Y56S
notes: CDR-shuffled IgG
B8: CTIR2-8 (antibody, human IgG1, kappa, V domains shown)
VH: B1 VH with R54K
VL: B1 VL with S28K, L92V, E93G, G95S
notes: CDR-shuffled IgG
B9: CTIR2-7 (antibody, human IgG1, kappa, V domains shown)
VH: B1 VH with R54K
VL: B1 VL with S28K
notes: CDR-shuffled IgG

Numbering of substitutions follows the chain as printed.

In the first experiment the target is T1, Terbium (Tb) labeled-SNAP tagged ROBO2 …. Put plainly: HTRF, 5 nM d2-SLIT2-N on Tb-SNAP-ROBO2 HEK293 cells, 1 nM antibody. The procedure: (§1) In this assay, terbium (Tb) labeled-SNAP tagged ROBO2 expressing HEK293 cells were incubated with 5 nM d2-labeled SLIT-2N in the presence of 1 nM anti-ROBO2 antibodies for 1 hour. After incubation, fluorescence at 665 nm and 620 nm was measured on an Envision multilabel plate reader. […] Maximal signal was defined as the HTRF ratio of Tb-labeled ROBO2 cells with d2-labeled SLIT2-N in the absence of antibody, the minimum signal was defined as the HTRF ratio of Tb-labeled ROBO2 expressing HEK293 cells only. One nanomolar (nM) parental antibody, 93H2, was unable to block the HTRF assay, therefore this concentration was selected to identify clones with a higher affinity than 93H2 (Table 2, HTRF Ratio column). […] Antibodies derived from chain (Abcs series) or CDR shuffling (CTIR-2 series) were evaluated in 11-point, 5-fold dilution series with a top concentration of 1500 nM (Table 2 HTRF IC₅₀).
HTRF assays were run with 5 nM d2-labeled SLIT2-N and antibodies were added at 1 nM. […] Antibodies derived from chain (Abcs series) or CDR shuffling (CTIR-2 series) were evaluated in 11-point, 5-fold dilution series with a top concentration of 1500 nM, N.T. = not tested; ^cFold selectivity was calculated as Geometric Mean Fluorescent Intensity (Geo MFI) of ROBO2/Geo MFI of ROBO1 binding.
Turning to B1, the “HTRF Ratio” value came to 4540.
On the same count and under the same terms, next, B2: 4780; B3: 4050; B4: 4330.
As to B5, the “HTRF Ratio” value was 6170.
In the case of B6, the “HTRF Ratio” value amounted to 4580.
Take B7: the “HTRF Ratio” value was 5180.
As for B8, the “HTRF Ratio” value was determined as 3860.
With B9, the “HTRF Ratio” value is 3670.

For a further experiment the target is unchanged. Put plainly: HTRF competition, competitor d2-SLIT2-N, ROBO2 HEK293 cells. The procedure:
as §1, with “Antibodies generated as a result of the affinity maturation campaign were screened by numerous assays for neutralization of SLIT2-N binding, selective binding to ROBO2 over ROBO1, and inhibition of SLIT2-N functional activity (see Table 2). A ROBO2-SLIT2-N homogenous time resolved fluorescence (HTRF) assay was used to identify antibodies that were capable of blocking SLIT2-N binding to ROBO2. In” for “In”
Background: TR-FRET usually uses a lanthanide donor and a delayed reading to cut background.
The molecule B1 displayed an IC50 of 0.159 nM.
B2: the IC50 worked out at 0.182 nM.
Regarding B3, the 50% inhibitory concentration (IC50) was found to be 0.154 nM.
In turn, B4 had an IC50 of 0.109 nM.
Still for that read-out and setting: next, B5: 0.38 nM; B6: 0.076 nM; B7: 0.165 nM.
Molecule B8 displayed an IC50 of 0.108 nM.
Take B9: the IC50 turned out to be 0.136 nM.

As a reminder, the IC50 is the concentration needed to halve the response being measured. Higher therefore signals lower potency.
